Series [1] deals with the molecule itself. Description: crystal structure; X-ray structures of BiuH and variants; sitting drops at 20 °C; SeMet SAD, variants by molecular replacement; homotetramer in the asymmetric unit.
Series [2] concerns the molecule itself. Description: SEC; Superdex 200 preparation grade, 130 mL column; 50 mM HEPES pH 7.5, 100 mM NaCl, later 50 mM Tris pH 7.5, 100 mM NaCl; elution compared with sizes expected for monomer, dimer, tetramer and octamer of BiuH. Background: In gel filtration, larger molecules generally elute earlier.

The values below come from paper PMC5806882, “Structural and biochemical characterization of the biuret hydrolase (BiuH) from the cyanuric acid catabolism pathway of Rhizobium leguminasorum bv. viciae 3841” (PLoS ONE, 2018).

B1: BiuH Cys175Ser (enzyme)
chain: not shown
notes: Biuret hydrolase BiuH, Rhizobium leguminosarum bv. viciae 3841, UniProt Q1M7F4, with Cys175Ser; Crystallised without (6AZN) and with biuret (6AZQ); also called C175S; Cys175Ser BiuH variant; source: E. coli BL21 (λDE3), purified (Ni-NTA, SEC)
Usually stoichiometry N stands for the number of molecules, sites or subunits per partner or assembly. With B1, the “stoichiometry N” value in series [1] worked out at 4.

B2: BiuH Lys142Ala with N-carbamoyl-D,L-aspartic acid (enzyme)
chain: not shown
modifications: acyl (thiocarbamate) covalent complex between the deaminated inhibitor N-carbamoyl-D,L-aspartic acid and Cys175
notes: Biuret hydrolase BiuH, Rhizobium leguminosarum bv. viciae 3841, UniProt Q1M7F4, with Lys142Ala; also called K142A; Lys142Ala variant; source: E. coli BL21 (λDE3), purified (Ni-NTA, SEC)
B2: the “stoichiometry N” value in series [1] was found to be 4.

B3: SeMet BiuH wild-type (seleno-L-methionine biuret hydrolase from Rhizobium leguminosarum bv. viciae 3841) (enzyme)
chain: not shown
modifications: selenomethionine in place of methionine
notes: Biuret hydrolase BiuH, Rhizobium leguminosarum bv. viciae 3841; synthetic gene encoding a protein identical to UniProt Q1M7F4; His-tag removed in situ with chymotrypsin, without further purification; also called biuret amidohydrolase; source: E. coli BL21 (λDE3), minimal medium with SeMet, purified (Ni-NTA, SEC); in situ chymotrypsin treatment in the crystallisation drop
Regarding B3, the “stoichiometry N” value in series [1] is 4.

B4: BiuH Lys142His (enzyme)
chain: not shown
notes: Biuret hydrolase BiuH, Rhizobium leguminosarum bv. viciae 3841, UniProt Q1M7F4, with Lys142His; also called K142H; source: E. coli BL21 (λDE3), purified (Ni-NTA, SEC)
For B4, in series [1], the “stoichiometry N” value was 4.

B5: BiuH wild type (biuret hydrolase from Rhizobium leguminosarum bv. viciae 3841) (enzyme)
chain: not shown
notes: Biuret hydrolase BiuH, Rhizobium leguminosarum bv. viciae 3841; synthetic gene encoding a protein identical to UniProt Q1M7F4; Size exclusion followed Ni-NTA directly in the purification, so the tag was probably still on the protein; also called BiuH WT; biuret amidohydrolase; source: E. coli BL21 (λDE3), purified (Ni-NTA, SEC)
As to B5, in series [2], the “stoichiometry N” value was 4.
